Laboratory results published in US6420338B1, “Inhibition of the Src kinase family pathway as a method of treating HBV infection and hepatocellular carcinoma” (New York University Medical Center, priority 1997, dated 2002).

Tests used:
AP-1 [1] = test: AP-1 electrophoretic mobility shift assay (EMSA) on nuclear extracts of Chang cells expressing HBx; type: cell-based; settings: cotransfection of increasing amounts of plasmid
Experimental: (§1) FIGS. 3A and 3B. Transcriptional activation of AP-1 by HBx involves activation of Src kinases. Chang cells transfected with 8 μg plasmids pCMV-X or pCMV-Xo, with or without cotransfection of pCsk for 18 h, then serum starved for 18 h. (FIG. 3A) Cell extracts were prepared for AP-1 EMSA as described (Benn et al., 1996, supra) using a ^32P-labeled dsDNA oligonucleotide probe containing one AP-1 binding site. Reactions were carried out using 3 μg of nuclear extract, labeled oligonuleotide and 1 μg of poly(dI-dC) for 30 min at 23° C. Protein-DNA complexes were resolved by electrophoresis on 4% polyacrylamide gels and visualized by PhosphorImage analysis. As a positive control for AP-1 stimulation, cells were treated with 20 μM TPA for 30 min. (FIG. 3B) Cells were transfected as above but contained in addition 3 μg of plasmid pAP-1LUC, which encodes the luciferase reporter under the control of four AP-1 binding sites and a minimal TATA box promoter. Serum starved cells were harvested 18 h after transfection and the level of expression of the luciferase reporter assayed. Results are the average of three independent experiments.
Nuclear extracts were prepared according to a modified Dignam protocol (Su and Schneider, 1996). […]

WHV [2] = test: WHV replication in Chang cells, Southern blot of intracellular core-associated viral DNA; type: cell-based, Woodchuck Hepatitis B Virus; settings: Chang cells co-transfected with wtWHV; 3 days post-transfection
Experimental: FIG. 7. WHx requires activation of Src family kinase for WHV replication. Chang cells were co-transfected with 20 μg PCWHV, wtWHV, wtWHV and RasDN (dominant-negative) (10 μg), or wtWHV and Csk (10 μg). Three days post-transfection viral core-associated DNA was isolated, purified, and subjected to Southern blot analysis using a full-length ^32P-labeled WHV genomic probe.
Chang cells were transfected with infectious WHV clones, (2×10 cm plates) were washed twice with PBS and lysed in 500 μl lysis buffer/10 cm plate (20 mM Tris HCl pH 7.5, 1 mM EDTA, 100 mM NaCl, 0.5% NP-40) for 10-15 minutes. Lysates were centrifuged at 12,000×g for 30 minutes, MgCl2 was adjusted to 10 mM, DNAseI (Boehringer Mannheim) was added to 20 U /ml and the lysates were incubated at 37° C. for 2 hours. Following DNAse I treatment, the lysates were centrifuged for 5 min at 12,000×g, layered onto a 20% sucrose cushion (300 μl of 20% sucrose in 20 mM Tris HCl pH 8.0, 150 mM NaCl) and centrifuged for 178,000×g for 3 hours at 20° C. […]
Chang cells were co-transfected with plasmids encoding either wtWHV, pCWHV, wtWHV and RasDN, or wtWHV and Csk, intracellular core-associated viral DNA was isolated 3 days post-transfection, and purified viral DNA analyzed by Southern blot hybridization as described above (FIG. 7).

N-Myc = N-Myc immunoblot of nuclear extracts of Chang cells expressing HBx; type: cell-based; settings: Chang cells co-expressing HBx; serum-starved 20 hours
Experimental: Cells were lysed in 1% Triton, 20 mM Hepes pH 7.4, 150 mM NaCl, 10% Glycerol, 1 mM Na3VO4, 50 mM NaF, 1 mM PMSF, 10 μg/ml aprotinin, and 10 μg/ml leupeptin. Equal amounts of protein were immunoprecipitated on ice for 2 hours and the immune complexes were collected by incubation with protein A-agarose (Santa Cruz) for 60 minutes at 4° C. Immunoprecipitates were washed three times with HNTG (20 mM Hepes pH 7.4, 150 mM NaCl, 0.1% Triton, and 10% Glycerol), resuspended in Laemmli sample buffer, heated to 95° C. for 10 minutes, resolved by electrophoresis on SDS-polyacrylamide gels, and immunoblotted to nitrocellulose using standard techniques (Harlow and Lane, 1988, Antibodies: A Laboratory Manual (Cold Spring Harbor, N.Y.; CSH Laboratory Press)). Immunoblots were visualized using the ECL chemiluminescence system (Amersham).
Nuclear extracts were prepared according to a modified Dignam protocol (Su and Schneider, 1996). Cell pellets were resuspended in 250 μl of cold Buffer A (10 mM Hepes pH 7.9, 1.5 mM MgCl2, 10 mM KCl, 0.5 mM DTT, 1 mM PMSF, 10 μg/ml leupeptin and 10 μg/ml aprotinin), swollen on ice for 10 min, vortexed for 10 sec, and centrifuged for 10 sec at 12,000×g. […]

MAP kinase (ERK2) [3] = test: MAP kinase (ERK2) immunoprecipitation MBP kinase assay in Chang cells expressing HBx; type: cell-based
AP-1 [4] = test: AP-1 dependent luciferase reporter in Chang cells expressing HBx; type: cell-based; settings: AP-1 luciferase reporter
Experimental: as §1
Here it is shown that HBx activation of AP-1 DNA binding activity and AP-1 directed transcription, both involve an essential requirement for HBx activation of Src tyrosine kinases. […]

WHV [5] = test: Northern blot of WHV viral mRNAs in Chang cells; type: cell-based, Woodchuck Hepatitis B Virus; settings: Chang cells co-transfected with wtWHV
Experimental: Chang cells were washed twice with PBS and total RNA prepared according to the manufacturer's instructions (RNeasy mini kit; Qiagen). 15 μg total RNA per sample were resolved through a 1.2% formaldehyde-agarose gel (Sambrook et al., 1989, supra), transferred to Duralon UV membrane, and pre-hybridized in Quick-Hyb solution (Stratagene) at 65° C. Hybridization to 32P-labeled full length WHV probe was carried out in the same solution at 65° C., washed as described above, and autoradiographed for 1 day.
It was next addressed whether the stimulation of viral replication by WHx was a result of transcriptional transactivation of WHV genes by WHx. Chang cells were transfected with wtWHV or pCWHV plasmids. Total cellular RNA was isolated 4 days post-transfection, equal amounts of RNA were resolved by electrophoresis through a 1.2% formaldehyde-agarose gel, and the viral mRNAs were visualized by Northern blot analysis using a ^32P-labeled probe corresponding to the entire WHV genome (FIG. 8, lanes 1 and 4). Steady-state levels of the genomic viral mRNAs was enhanced ˜3-5 fold in Chang cells expressing wtWHV as compared to PCWHV. […]

MAP kinase (ERK2) [6] = test: MAP kinase (ERK2) MBP kinase assay in Chang cells transfected with wtWHV; type: cell-based; settings: Chang cells co-transfected with wtWHV; serum-starved
Experimental: FIG. 6. Woodchuck Hepatitis B Virus (WHV) HBx protein (WHx) activates a Src-Ras signaling cascade during WHV replication in cultured cells. […] Eighteen hours post-transfection, cells were serum-starved in 0.5% CS for 20 hours, MAP kinase (ERK-2) was immunoprecipitated from equal amounts of cell lysates and pellets were subjected to an in vitro MBP kinase assay.
To assay for MAP kinase activity, cells were lysed in freshly prepared lysis buffer (10 mM Tris HCl pH 7.5, 1% Triton X-100, 0.5% NP-40, 1 mM EDTA, 1 mM EGTA, 1 mM Na3VO4, 50 mM NaF, 1 mM PMSF, 40 mM PPi, 10 μg/ml aprotinin, and 10 μg/ml leupeptin) and MAP kinase was immunoprecipitated using 1 μg/ml anti-ERK2 antibodies from equal amounts of protein. After 4 washes with lysis buffer, and 2 with kinase buffer (20 mM Hepes pH 7.4, 10 mM MgCl2), the immunoprecipitates were incubated with kinase buffer including 0.5 mg/ml myelin basic protein (MBP, Sigma), 10 mM ATP and 5 μCi [γ-^32P]ATP for 30 minutes at 30° C. […]
To determine whether WHx also requires activation of Src family kinases for stimulation of Ras signaling during ongoing viral replication, Chang cells were co-transfected with plasmids synthesizing wtWHV and dominant-negative Ras (RasDN), dominant-negative Src (SrcK^−), or Csk proteins, and activation of MAP kinase was measured. […]

CMV promoter = test: CMV-βgal reporter control (β-galactosidase activity); type: cell-based; settings: co-expression with CMV-βgal
Description: To assess whether HBx activation of a Src signaling cascade plays an essential role in transcriptional upregulation of the viral mRNAs, Chang cells were co-transfected with wtWHV and either RasDN or Csk plasmids, and the RNA visualized by Northern analysis (FIG. 7, lanes 2 and 3). […] To ensure that the decrease in synthesis of WHV RNA by Csk was not the unforseen consequence of Csk inhibition of the CMV promoter (which drives synthesis of the WHV pregenomic RNA), control experiments assessing the effect of Csk on a CMV-βgal reporter were carried out. […] However, the WHx-induced increase in mRNA abundance (˜3-5 fold) is much less then the HBx-induced increase in viral DNA synthesis (˜20-30 fold). […] The stimulation of Src signaling cascades by HBx must therefore promote WHV replication independent of the effect of WHx on viral transcription.

B1: Csk: Csk (carboxyl-terminal Src kinase), a specific physiologic inhibitor of Src kinase, expressed from a CMV promoter plasmid (protein, UniProt P41240 2-450, looked up)
Tyrosine-protein kinase CSK: SAIQAAWPSGTECIAKYNFHGTAEQDLPFCKGDVLTIVAVTKDPNWYKAKNKVGREGIIPANYVQKREGVKAGTKLSLMPWFHGKITREQAERLLYPPETGLFLVRESTNYPGDYTLCVSCDGKVEHYRIMYHASKLSIDEEVYFENLMQLVEHYTSDADGLCTRLIKPKVMEGTVAAQDEFYRSGWALNMKELKLLQTIGKGEFGDVMLGDYRGNKVAVKCIKNDATAQAFLAEASVMTQLRHSNLVQLLGVIVEEKGGLYIVTEYMAKGSLVDYLRSRGRSVLGGDCLLKFSLDVCEAMEYLEGNNFVHRDLAARNVLVSEDNVAKVSDFGLTKEASSTQDTGKLPVKWTAPEALREKKFSTKSDVWSFGILLWEIYSFGRVPYPRIPLKDVVPRVEKGYKMDAPDGCPPAVYEVMKNCWHLDAAMRPSFLQLREQLEHIKTHELHL
What does the source list for B1?
effect on HBx induction of AP-1 DNA binding complexes (AP-1 [1]): suppressed; effect on WHV replication (viral DNA replicative intermediates) (WHV [2]): completely abolished; effect on increase in N-Myc protein by HBx (N-Myc): impaired; effect on HBx activation of ERK2 (MAP kinase (ERK2) [3]; Chang cells co-expressing HBx, serum-starved in 0.5% CS for 24 hours): impaired; effect on HBx-induced activation of MAP kinase (MBP phosphorylation) (MAP kinase (ERK2) [3]; Chang cells co-transfected with HBx, serum-starved 20 hours, 2% serum restored for 2 hours): abolished; effect on activation of MAP kinase by insulin (MAP kinase (ERK2) [3]; Chang cells, overexpression, insulin stimulation): only slightly impaired; effect on HBx induced activation of AP-1 dependent transcription (AP-1 [4]): fully blocked; reduction of WHV RNA level (WHV [5]): 3-5 fold; effect on downstream activation of MAP kinase by wtWHV (MAP kinase (ERK2) [6]): efficiently inhibited; effect on expression of βgal protein from CMV-βgal (β-galactosidase activity) (CMV promoter): did not significantly alter
